Data reported in patent publication US20070178572A1, “Protein crystal structure” (priority 2003, published 2007).
Substitutions are numbered along the chain they refer to. Like-named read-outs stand apart in the source and are kept apart here.

B1: SET 7/9: human enzyme that specifically methylates lysine-4 of histone H3 (protein, UniProt Q8WTS6 1-366, looked up)
Histone-lysine …: MDSDDEMVEEAVEGHLDDDGLPHGFCTVTYSSTDRFEGNFVHGEKNGRGKFFFFDGSTLEGYYVDDALQGQGVYTYEDGGVLQGTYVDGELNGPAQEYDTDGRLIFKGQYKDNIRHGVCWIYYPDGGSLVGEVNEDGEMTGEKIAYVYPDERTALYGKFIDGEMIEGKLATLMSTEEGRPHFELMPGNSVYHFDKSTSSCISTNALLPDPYESERVYVAESLISSAGEGLFSKVAVGPNTVMSFYNGVRITHQEVDSRDWALNGNTLSLDEETVIDVPEPYNHVSKYCASLGHKANHSFTPNCIYDMFVHPRFGPIKCIRTLRAVEADEELTVAYGYDHSPPGKSGPEAPEWYQVELKAFQATQQK
B2: Y245>A: SET 7/9 histone methyltransferase with point mutation of Tyr-245 to alanine (protein, UniProt Q8WTS6 1-366, looked up, variant Y245A)
Histone-lysine …: B1 Histone-lysine … with Y245A

How the values were obtained:
[1] = test system: H3 20mer peptide; assay: Analytical analysis of histone methylation (HPLC separation and MALDI of reaction products); type: biochemical, human; details: unmodified peptide and AdoMet, reaction driven essentially to completion
Description: The histone methyltransferase assay for analytical purposes was carried out under slightly different conditions than those described in Example 1.2. For analytical purposes the reaction was performed at 37° C. in 50 mM Tris-HCl, pH 8.0, 100 mM NaCl, 1 mM DTT, with 300 μM AdoMet (Fluka, Switzerland), 100 μM H3 20mer peptide ([…]), and with 1.5 μM enzyme. At desired time intervals an aliquot of the reaction was removed and quenched in 8 M urea and acidified with glacial acetic acid. The reaction products were separated by reverse phase HPLC (Jasco (UK) Ltd) on a Zorbax 300SB-C18 column (Rockland Technologies, Inc. USA) using a gradient from 0 to 40% acetonitrile in the presence of 0.05% trifluoroacetic acid at 55° C. Fractions from the peptide peak were analysed using a Reflex III MALDI time-of-flight mass spectrometer (Bruker Daltonik, GmbH, Germany) to obtain positive ion mass spectra.
The present inventors have further analysed the methylation reaction. Reaction mixtures were set up with unmodified peptide and AdoMet and conditions found where the reaction was driven essentially to completion. […] The reason for SET 7/9 acting as a mono-methyltransferase is readily apparent from the crystal structure now presented. The peptide used for crystallization was synthesised using mono-methylated lysine at position 4. […]

[2] = test system: histone H3 peptide; assay: HMTase activity measurements (histone methyltransferase assay, [methyl-3H] AdoMet, scintillation counting); type: biochemical, human
Description: The methyltransferase activity of SET7/9 and the various mutant constructs described in the text were determined in a reaction volume of 20 μl containing 3 μM AdoMet supplemented with [methyl-^3H] AdoMet (4 μCi) (Amersham Biosciences, UK) and […] purified methylase in reaction buffer (50 mM Tris pH 8.5, 100 mm NaCl, 1 mM EDTA, 1 mM DTT) with 50 μM histone peptide (see below). Following incubation at 37° C. for 60 min the reaction was vacuum blotted onto membrane (Hybond-C, Amersham Biosciences, UK) washed and activity measured by scintillation counting.

[3] = test system: histone H3 peptide; details: previously reported (Wilson et al, 2002); cited from earlier work

Molecule	methylation state of reaction product [1]	HMTase activity ([2]; mono-methylated Lys-4 substrate)	HMTase activity ([2]; unmodified lysine substrate)	HMTase activity [3]
B1	only mono-methylated peptide	–	–	–
B2	–	substantial activity	greatly reduced activity	dramatic reduction in HMTase activity
